T1: FcγRIIa(R) extracellular domain, C-terminal His tag (human, UniProt P12318 34-217)
T1 construct: extracellular domain; Allotype R131; also called 2aR
T1 sequence: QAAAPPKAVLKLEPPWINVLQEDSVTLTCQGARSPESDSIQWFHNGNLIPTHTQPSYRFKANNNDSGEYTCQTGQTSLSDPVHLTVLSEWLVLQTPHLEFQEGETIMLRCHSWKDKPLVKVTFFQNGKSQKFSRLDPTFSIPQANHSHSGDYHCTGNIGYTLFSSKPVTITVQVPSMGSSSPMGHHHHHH

T2: FcγRIIb extracellular domain, C-terminal His tag (human, UniProt P31994 43-217)
T2 construct: extracellular domain; also called 2b
T2 sequence: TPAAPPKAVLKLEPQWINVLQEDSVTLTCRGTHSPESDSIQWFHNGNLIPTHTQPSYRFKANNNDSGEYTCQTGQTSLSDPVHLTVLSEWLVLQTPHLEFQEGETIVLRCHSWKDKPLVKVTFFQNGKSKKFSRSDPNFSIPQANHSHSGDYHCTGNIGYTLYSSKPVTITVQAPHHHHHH

T3: FcγRIIa(H) extracellular domain, C-terminal His tag (human, UniProt P12318 34-217)
T3 construct: extracellular domain; Allotype H131; also called 2aH
T3 sequence: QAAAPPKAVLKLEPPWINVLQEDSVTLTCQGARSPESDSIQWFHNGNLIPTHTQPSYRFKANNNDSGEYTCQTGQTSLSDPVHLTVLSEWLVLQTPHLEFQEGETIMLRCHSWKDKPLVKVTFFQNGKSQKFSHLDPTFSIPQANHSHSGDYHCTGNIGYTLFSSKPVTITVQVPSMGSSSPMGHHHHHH


What was measured:
Test in all cases: SPR (Biacore); binding relative to GpH7-A5/GpH7-B3/GpL16-k0 x100;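 note: antibodies captured on a chip surface, soluble FcγR flowed over in HBS-EP+ running buffer at 25 °C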
[1] = target: T4, FcγRIIIa extracellular domain, C-terminal His tag (human, UniProt P08637 17-208)
T4 construct: extracellular domain; also called 3a
T4 sequence (P08637 other isoform, or with tags, fused parts or gaps): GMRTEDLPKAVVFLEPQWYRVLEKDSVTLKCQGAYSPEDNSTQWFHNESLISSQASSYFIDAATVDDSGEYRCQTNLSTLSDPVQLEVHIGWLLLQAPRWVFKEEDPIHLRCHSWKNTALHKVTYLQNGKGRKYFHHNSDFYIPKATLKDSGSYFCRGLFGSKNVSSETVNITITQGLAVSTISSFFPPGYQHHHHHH
Description: (§1) The antibody of interest was analyzed for its interaction with FcγR using a BiaCore™ T100, BiaCore™ A100, or BiaCore™ 4000 surface plasmon resonance system (GE Healthcare Japan Corp.). The running buffer used was HBS-EP+ (GE Healthcare Japan Corp.). The assay temperature was set to 25° C. The sensor chips used were: a chip prepared by immobilizing antigenic peptides onto Series S Sensor Chip CM5 (GE Healthcare Japan Corp.) by the amine coupling method; a chip prepared by immobilizing antigenic peptides biotinylated in advance onto Series S Sensor Chip SA (certified) (GE Healthcare Japan Corp.) through their interaction; a chip prepared by immobilizing protein L (ACTIGEN, BioVision, Inc.) onto Series S Sensor Chip CM5 (GE Healthcare Japan Corp.); and a chip prepared by immobilizing protein A/G (Thermo Fisher Scientific K.K.) onto Series S Sensor Chip CM5 (GE Healthcare Japan Corp.). The antibody of interest was captured onto any of these chips and allowed to interact with FcγR diluted with a running buffer. The antibody captured on the chip was washed off through the reaction of 10 mM glycine-HCl (pH 1.5) to regenerate the chip, which was repetitively used.

[2] = target: T1, FcγRIIa(R) extracellular domain, …
Description: as §1

[3] = target: T2, FcγRIIb extracellular domain, …
Description: as §1

[4] = target: T5, FcγRIa extracellular domain, C-terminal His tag (human, UniProt P12314 16-292)
T5 construct: extracellular domain; also called 1a
T5 sequence (P12314 other isoform, or with tags, fused parts or gaps): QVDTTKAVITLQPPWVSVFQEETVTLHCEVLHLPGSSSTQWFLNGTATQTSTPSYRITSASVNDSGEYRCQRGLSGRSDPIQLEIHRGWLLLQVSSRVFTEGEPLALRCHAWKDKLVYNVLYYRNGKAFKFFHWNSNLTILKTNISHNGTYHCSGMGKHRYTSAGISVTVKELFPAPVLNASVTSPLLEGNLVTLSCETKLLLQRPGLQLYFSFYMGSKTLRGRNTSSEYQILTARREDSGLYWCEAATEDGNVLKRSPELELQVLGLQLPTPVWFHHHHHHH
Description: as §1

[5] = target: T3, FcγRIIa(H) extracellular domain, …
Description: as §1

He/Con 3a [1] [%]	He/Con 2aR [2] [%]	He/Con 2b [3] [%]	He/Con 1a [4] [%]	He/Con 2aH [5] [%]	Binder
70.7	110	122	108	87.7	GpH7-A5/GpH7-B3 variant P331_04F/GpL16-k0 (antibody, human IgG1, kappa, He Ab: anti-glypican 3 IgG1 heterodimer, only the GpH7-B3 chain mutated; position in EU numbering; also called He Ab) heavy 1: not shown heavy 2: not shown light: DIVMTQSPLSLPVTPGEPASISCQASESLVHSNRNTYLHWYLQKPGQSPQLLIYKVSNRFSGVPDRFSGSGSGTDFTLKISRVEAEDVGVYYCSQNTHVPPTFGQGTKVEIERTVAAPSVFIFPPSDEQLKSGTASVVCLLNNFYPREAKVQWKVDNALQSGNSQESVTEQDSKDSTYSLSSTLTLSKADYEKHKVYACEVTHQGLSSPVTKSFNRGEC
68.4	105	113	106	88.1	GpH7-A5/GpH7-B3 variant P331_06M/GpL16-k0 (antibody, human IgG1, kappa, He Ab: anti-glypican 3 IgG1 heterodimer, only the GpH7-B3 chain mutated; position in EU numbering; also called He Ab) heavy 1: not shown heavy 2: not shown light: DIVMTQSPLSLPVTPGEPASISCQASESLVHSNRNTYLHWYLQKPGQSPQLLIYKVSNRFSGVPDRFSGSGSGTDFTLKISRVEAEDVGVYYCSQNTHVPPTFGQGTKVEIERTVAAPSVFIFPPSDEQLKSGTASVVCLLNNFYPREAKVQWKVDNALQSGNSQESVTEQDSKDSTYSLSSTLTLSKADYEKHKVYACEVTHQGLSSPVTKSFNRGEC
61.8	94.6	93.9	100	83.7	GpH7-A5/GpH7-B3 variant P331_11K/GpL16-k0 (antibody, human IgG1, kappa, He Ab: anti-glypican 3 IgG1 heterodimer, only the GpH7-B3 chain mutated; position in EU numbering; also called He Ab) heavy 1: not shown heavy 2: not shown light: DIVMTQSPLSLPVTPGEPASISCQASESLVHSNRNTYLHWYLQKPGQSPQLLIYKVSNRFSGVPDRFSGSGSGTDFTLKISRVEAEDVGVYYCSQNTHVPPTFGQGTKVEIERTVAAPSVFIFPPSDEQLKSGTASVVCLLNNFYPREAKVQWKVDNALQSGNSQESVTEQDSKDSTYSLSSTLTLSKADYEKHKVYACEVTHQGLSSPVTKSFNRGEC
66	101	106	105	85.9	GpH7-A5/GpH7-B3 variant P331_08L/GpL16-k0 (antibody, human IgG1, kappa, He Ab: anti-glypican 3 IgG1 heterodimer, only the GpH7-B3 chain mutated; position in EU numbering; also called He Ab) heavy 1: not shown heavy 2: not shown light: DIVMTQSPLSLPVTPGEPASISCQASESLVHSNRNTYLHWYLQKPGQSPQLLIYKVSNRFSGVPDRFSGSGSGTDFTLKISRVEAEDVGVYYCSQNTHVPPTFGQGTKVEIERTVAAPSVFIFPPSDEQLKSGTASVVCLLNNFYPREAKVQWKVDNALQSGNSQESVTEQDSKDSTYSLSSTLTLSKADYEKHKVYACEVTHQGLSSPVTKSFNRGEC
71.6	101	104	109	93.6	GpH7-A5/GpH7-B3 variant P331_09D/GpL16-k0 (antibody, human IgG1, kappa, He Ab: anti-glypican 3 IgG1 heterodimer, only the GpH7-B3 chain mutated; position in EU numbering; also called He Ab) heavy 1: not shown heavy 2: not shown light: DIVMTQSPLSLPVTPGEPASISCQASESLVHSNRNTYLHWYLQKPGQSPQLLIYKVSNRFSGVPDRFSGSGSGTDFTLKISRVEAEDVGVYYCSQNTHVPPTFGQGTKVEIERTVAAPSVFIFPPSDEQLKSGTASVVCLLNNFYPREAKVQWKVDNALQSGNSQESVTEQDSKDSTYSLSSTLTLSKADYEKHKVYACEVTHQGLSSPVTKSFNRGEC
60.4	109	127	106	80.1	GpH7-A5/GpH7-B3 variant P331_07I/GpL16-k0 (antibody, human IgG1, kappa, He Ab: anti-glypican 3 IgG1 heterodimer, only the GpH7-B3 chain mutated; position in EU numbering; also called He Ab) heavy 1: not shown heavy 2: not shown light: DIVMTQSPLSLPVTPGEPASISCQASESLVHSNRNTYLHWYLQKPGQSPQLLIYKVSNRFSGVPDRFSGSGSGTDFTLKISRVEAEDVGVYYCSQNTHVPPTFGQGTKVEIERTVAAPSVFIFPPSDEQLKSGTASVVCLLNNFYPREAKVQWKVDNALQSGNSQESVTEQDSKDSTYSLSSTLTLSKADYEKHKVYACEVTHQGLSSPVTKSFNRGEC
68.7	112	128	108	90.1	GpH7-A5/GpH7-B3 variant P331_10E/GpL16-k0 (antibody, human IgG1, kappa, He Ab: anti-glypican 3 IgG1 heterodimer, only the GpH7-B3 chain mutated; position in EU numbering; also called He Ab) heavy 1: not shown heavy 2: not shown light: DIVMTQSPLSLPVTPGEPASISCQASESLVHSNRNTYLHWYLQKPGQSPQLLIYKVSNRFSGVPDRFSGSGSGTDFTLKISRVEAEDVGVYYCSQNTHVPPTFGQGTKVEIERTVAAPSVFIFPPSDEQLKSGTASVVCLLNNFYPREAKVQWKVDNALQSGNSQESVTEQDSKDSTYSLSSTLTLSKADYEKHKVYACEVTHQGLSSPVTKSFNRGEC

— patent publication US20260167699A1 (Chugai, published 2026)
